In general, stoichiometry N refers to a count of units in the complex or per binding partner.

Results on two molecules are retold here after article PMC12977500, “Mechanistic insights into SteAB regulation of cell wall hydrolase RipA in Mycobacterium tuberculosis” (mBio, 2026).

The target of data set [1] is T1, MtRipACAT (catalytic domain of M. tuberculosis RipA, residues 261–472) (Mycobacterium tuberculosis, UniProt O53168 261-472).
T1 construct: also called MtRipA catalytic domain; NlpC/P60 catalytic domain; not shown: His6, N-terminal, cleaved; SUMO, N-terminal, cleaved
T1 sequence: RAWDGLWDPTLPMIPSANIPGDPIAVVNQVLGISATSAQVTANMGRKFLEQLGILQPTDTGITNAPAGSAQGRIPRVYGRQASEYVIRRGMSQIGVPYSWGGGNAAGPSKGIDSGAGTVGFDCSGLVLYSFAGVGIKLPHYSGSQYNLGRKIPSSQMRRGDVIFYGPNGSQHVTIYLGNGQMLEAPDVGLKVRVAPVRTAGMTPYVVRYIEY
Put plainly: BLI; biotinylated MtRipACC immobilised on streptavidin biosensors; Octet-Red384, 25°C; 25 mM HEPES pH 7.5, 150 mM NaCl, 5% glycerol, 1 mg/mL BSA, 0.05% Tween 20; MtSteB 200–3.125 μM or MtRipACAT 80–1.25 μM; steady-state signal, one-site binding model; apparent Kd. As to conditions: both partners purified. Background: In BLI a coated tip is dipped into the sample, and binding shifts an interference pattern.

Data set [2] deals with the molecule itself. Kind of data set: SEC; analytical SEC, Superdex-200 3.2/300, 25 mM Hepes pH 8, 150 mM NaCl; calibrated with BioRad gel filtration standard. For orientation: Size exclusion chromatography separates by hydrodynamic size, large species first.

B1: MtRipACC (coiled-coil domain of M. tuberculosis RipA, residues 40–240) (domain or fragment)
chain: DPQTDTIAALIADVAKANQRLQDLSDEVQAEQESVNKAMVDVETARDNAAAAEDDLEVSQRAVKDANAAIAAAQHRFDTFAAATYMNGPSVSYLSASSPDEIIATVTAAKTLSASSQAVMANLQRARTERVNTESAARLAKQKADKAAADAKASQDAAVAALTETRRKFDEQREEVQRLAAERDAAQARLQAARLVAWSSE
modifications: biotin (EZ-Link NHS-PEG4-Biotin, 20 molar excess) in the BLI assays only
notes: Biotinylated and immobilised on streptavidin sensors for BLI; not biotinylated in the crystal of the complex; also called RipA coiled-coil domain; CC domain of RipA; not shown: His6, N-terminal, cleaved; SUMO, N-terminal, cleaved
B1: the Kd in data set [1] was 6.8 ± 1.4 µM.

B2: CgSteBΔTM (soluble SteB of Corynebacterium glutamicum) (domain or fragment)
chain: APNLPENIDPNAPTSAELVEAETLAEVNAVQADQADSIIDHIVEDVVAGTLTDRPVLVMRTADAEESDVADVSWLLQQAGAINAGSITLEENFFSQDGADQLKSIVANTLPAGAQLSETQLDPGTHAGEALGAALLLNPETGEPLASTAERGLLLNVLRDNGYISYEDGTILPGQVIVMITGDSDGSGDGAFAAETQSLFARALDAQGSGVVVAGRIHTAADTGVIGRLRANPDAAENVSTIDSVNRTWGKMATVLSVREELAGRSGAFGSAASADAASPSLDGTAAAPAQ
notes: The cloning of this construct is not described here; source: E. coli BL21 (DE3), purified ("pure protein sample")
Consider B2, for which the “stoichiometry N” value in data set [2] was found to be 2.
